Test results taken from US20240101668A1 (WUGEN, published 2024).
Where a chain is given by its changes, count along the chain named.

T1: huCLL1-K244-Avi-Tev-His (human, UniProt Q5QGZ9 65-265)
T1 construct: extracellular domain
T1 sequence (looked up): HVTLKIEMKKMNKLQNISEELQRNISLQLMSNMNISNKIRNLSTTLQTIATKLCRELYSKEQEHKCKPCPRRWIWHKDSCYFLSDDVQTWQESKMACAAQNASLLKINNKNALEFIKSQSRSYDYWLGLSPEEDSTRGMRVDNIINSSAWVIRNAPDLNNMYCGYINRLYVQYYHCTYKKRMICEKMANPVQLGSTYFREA

T2: huCLL1-Q244-Avi-Tev-His (human, UniProt Q5QGZ9 65-265)
T2 construct: extracellular domain; also called CLL-1 K244Q
T2 sequence (looked up): T1 sequence (looked up) with K180Q

B1: Polypeptide No. 150 (scFv, V domains shown)
VH: QVQLVQSGAEVKKPGASVKVSCKASGYIFTSQYIHWVRQAPGQGLEWMGWINPNSGGTNYAQKFQGRVTMTRDTSTSTVYMELSSLRSEDTAVYYCARDPWGAYGGDAFDIWGQGTMVTVSS
VL: DIQMTQSPSSLSASVGDRVTITCRASQGISNNLNWYQQKPGKAPKLLIYDASHLDTGVPSRFSGSGSGTDFTLTISSLQPEDFATYYCQQNYSPPPTFGQGTRLEIKR
notes: scFv
B2: Polypeptide No. 144 (scFv, V domains shown)
VH: QVQLVQSGAEVKKPGASVKVSCKASGYTFTAYYMHWVRQAPGQGLEWMGIIDPSGGSTSYAQQFQGRVTMTRDTSTSTVYMELSSLRSEDTAVYYCARGDYGDYHTLWGQGTLVTVSS
VL: DIQMTQSPSSLSASVGDRVTITCRASQGISSYLAWYQQKPGKAPKLLIYDASSLQSGVPSRFSGSGSGTDFTLTISSLQPEDFATYYCQQSYSTPITFGPGTKVDIKR
notes: scFv
B3: Polypeptide No. 149 (scFv, V domains shown)
VH: QVQLVQSGAEVKKPGASVKVSCKASGYTFTSYDINWVRQAPGQGLEWMGWMNPNSGNTGYAQKFQGRVTMTRDTSTSTVYMELSSLRSEDTAVYYCARELEGEWFDPWGQGTLVTVSS
VL: B2 VL with G28S, A34N, D50S, S53N, S91A, Y92I, T94F, I96L, P100Q, D105E
notes: scFv
B4: Polypeptide No. 151 (scFv, V domains shown)
VH: QVQLVQSGAEVKKPGASVKVSCKASGYTFTDYYIHWVRQAPGQGLEWMGWMNPNSGNTGYAQKFQGRVTMTRDTSTSTVYMELSSLRSEDTAVYYCARVDTADYMDVWGKGTLVTVSS
VL: B2 VL with Y32W, S53N, S56T, I96L, P100Q, D105E
notes: scFv
B5: Polypeptide No. 146 (scFv, V domains shown)
VH: QVQLVQSGAEVKKPGASVKVSCKASGYTFSGHYMHWVRQAPGQGLEWMGWIDPNSGGTNYAQKFQGRVTMTRDTSTSTVYMELSSLRSEDTAVYYCARDYPFYGDNDAFDIWGQGTTVTVSS
VL: B2 VL with A25V, A34N, D50E, Q55E, T94I, I96F
notes: scFv
B6: Polypeptide No. 147 (scFv, V domains shown)
VH: QVQLVQSGAEVKKPGASVKVSCKASGYTFTSYHIHWVRQAPGQGLEWVGGIIPSGGSTSYAQKFQGRVTMTRDTSTSTVYMELSSLRSEDTAVYYCARGTNDDHYDYWGQGTLVTVSS
VL: B2 VL with S31N, S53N, Q55E, S56T, I96L, P100G, D105E
notes: scFv
B7: Polypeptide No. 153 (scFv, V domains shown)
VH: QVQLVQSGAEVKKPGASVKVSCKASGGAFSSYALSWVRQAPGQGLEWMGWMNPNSGNTGYAQKFQGRVTMTRDTSTSTVYMELSSLRSEDTAVYYCAADWMIGGDAFDIWGQGTTVTVSS
VL: B2 VL with G28S, Y32W, S53R, S93G, T94I, I96L, P100G, D105E
notes: scFv
B8: Polypeptide No. 145 (scFv, V domains shown)
VH: QVQLVQSGAEVKKPGASVKVSCKASGGTFSTSYMHWVRQAPGQGLEWMGWIHPDDGNTDYAPKFQGRVTMTRDTSTSTVYMELSSLRSEDTAVYYCARDLGDYDTFDIWGQGTMVTVSS
VL: B2 VL with A25V, A34N, S53N, S56A, I96P, P100Q, D105E
notes: scFv
B9: Polypeptide No. 148 (scFv, V domains shown)
VH: QVQLVQSGAEVKKPGASVKVSCKASGGTFTTYGISWVRQAPGQGLEWMGWMNPFSDNTDYAQNFQGRVTMTRDTSTSTVYMELSSLRSEDTAVYYCARGTGDDAFDIWGQGTMVTVSS
VL: B2 VL with G28S, S31T, Y32W, L33V, D50A, Y92F, T94I, I96L, P100Q, D105E
notes: scFv
B10: Polypeptide No. 154 (scFv, V domains shown)
VH: QVQLVQSGAEVKKPGASVKVSCKASGGTFSSYGVTWVRQAPGQGLEWMGWINPNTGGTDYAQNFQGRVTMTRDTSTSTVYMELSSLRSEDTAVYYCAGEVGVGGYDAFDIWGQGTTVTVSS
VL: B2 VL with S31N, Y32W, D50A, T94I, I96L, P100G, D105E
notes: scFv
B11: Polypeptide No. 152 (scFv, V domains shown)
VH: QVQLVQSGAEVKKPGASVKVSCKASGGTFSTNAISWVRQAPGQGLEWMGWMNPNSGNTGYAQKFQGRVTMTRDTSTSTVYMELSSLRSEDTAVYYCAKEDYGGNFDYWGQGTLVTVSS
VL: B2 VL with G28S, S30G, S31P, Y32W, S53N, S56A, Y92H, T94L, I96L
notes: scFv
B12: Polypeptide No. 155 (scFv, V domains shown)
VH: QVQLVQSGAEVKKPGASVKVSCKASGYTFTSYDINWVRQAPGQGLEWMGWMNPSSGDSGYAQKFQGRVTMTRDTSTSTVYMELSSLRSEDTAVYYCARPERSDAFDIWGQGTTVTVSS
VL: DIQMTQSPSSLSASVGDRVTITCRASQSIGPWLAWYQQKPGKAPKLLIYDASNLEAGVPSRFSGSGSGTDFTLTISSLQPEDFATYYCQQSFSSPLTFGGGTKVEIKR
notes: scFv
B13: Polypeptide No. 226 (scFv, V domains shown)
VH: QVQLVQSGAEVKKPGASVKVSCKASGYTFTGYYMHWVRQAPGQGLEWMGIIDPSGGSTSYAQKFQGRVTMTRDTSTSTVYMELSSLRSEDTAVYYCARDRSLLWSGVGGMDVWGQGTTVTVSS
VL: B2 VL with S31N, D50G, S53N, S93G, I96Y, P100Q, V104L, D105E
notes: scFv
B14: Polypeptide No. 210 (scFv, V domains shown)
VH: QVQLVQSGAEVKKPGSSVKVSCKASGYTLTELSMHWVRQAPGQGLEWMGGIIPISGTTKYAQKFQGRVTITADESTSTAYMELSSLRSEDTAVYYCARASPRYYMDVWGKGTTVTVSS
VL: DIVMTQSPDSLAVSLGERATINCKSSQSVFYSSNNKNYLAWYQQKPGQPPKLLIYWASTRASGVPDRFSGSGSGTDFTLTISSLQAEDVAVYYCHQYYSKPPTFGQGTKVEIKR
notes: scFv
B15: Polypeptide No. 224 (scFv, V domains shown)
VH: QVQLVQSGAEVKKPGSSVKVSCKASGYTFTGYYMHWVRQAPGQGLEWMGVINPIYGTANYALKFQGRVTITADESTSTAYMELSSLRSEDTAVYYCAKAISSGWSNDAFDIWGQGTMVTVSS
VL: EIVMTQSPATLSVSPGERATLSCRASQSVSSDFLAWYQQKPGQAPRLLIYDTSSRASGIPARFSGSGSGTEFTLTISSLQSEDFAVYYCQQYAGPPTFGQGTRLEIKR
notes: scFv
B16: Polypeptide No. 282 (scFv, V domains shown)
VH: QVQLVQSGAEVKKPGASVKVSCKASGGTFSSYAISWVRQAPGQGLEWMGWMNPNSGDTGYAQKFQGRVTMTRDTSTSTVYMELSSLRSEDTAVYYCARDFEGGGWFDPWGQGTLVTVSS
VL: EIVMTQSPATLSVSPGERATLSCRASRSISDYLAWYQQKPGQAPRLLIYDASSRATGIPARFSGSGSGTEFTLTISSLQSEDFAVYYCQQYYTTPLTFGQGTKVEIKR
notes: scFv
B17: Polypeptide No. 245 (scFv, V domains shown)
VH: QVQLVQSGAEVKKPGSSVKVSCKASGYTFTGFYIHWVRQAPGQGLEWMGGVIPFFSRTIYAQKFQGRVTITADESTSTAYMELSSLRSEDTAVYYCAYGANGHLYGMDAWGQGTTVTVSS
VL: EIVMTQSPATLSVSPGERATLSCRASQSVSSSYLAWYQQKPGQAPRLLIYGASTRATGIPARFSGSGSGTEFTLTISSLQSEDFAVYYCQQYSSSPLTFGQGTKVEIKR
notes: scFv
B18: Polypeptide No. 286 (scFv, V domains shown)
VH: QVQLVQSGAEVKKPGASVKVSCKASGYTFTSYGISWVRQAPGQGLEWMGWISPNSGVTNYAQKFQGRVTMTRDTSTSTVYMELSSLRSEDTAVYYCVSDDYGAFDYWGQGTLVTVSS
VL: B17 VL with G51D, A52V, T57S, S93N, S94N, S95W, L97Y, V105L
notes: scFv
B19: Polypeptide No. 250 (scFv, V domains shown)
VH: QVQLVQSGAEVKKPGSSVKVSCKASGYTLTSFAMHWVRQAPGQGLEWMGRIIPMSGTANYAQKFQGRVTITADESTSTAYMELSSLRSEDTAVYYCASTSPDQYYYGMDVWGQGTTVTVSS
VL: B17 VL with S30G, Y33S, S93G, L97Y
notes: scFv
B20: Polypeptide No. 268 (scFv, V domains shown)
VH: QVQLVQSGAEVKKPGSSVKVSCKASGGTFSTYALSWVRQAPGQGLEWMGGVIPVFGTTDYAHKFQGRVTITADESTSTAYMELSSLRSEDTAVYYCASMIIFGAGGWDAYYFQEWGQGTLVTVSS
VL: B17 VL with S30N, S31N, S32N, Y33Q, G51D, A52T, T54S, S93D, S94T, L97Y
notes: scFv
B21: Polypeptide No. 263 (scFv, V domains shown)
VH: QVQLVQSGAEVKKPGSSVKVSCKASGGTFSSYAISWVRQAPGQGLEWMGGIIPIVGVANYAQKLQGRVTITADESTSTAYMELSSLRSEDTAVYYCAKDIGGYPSDAFDIWGQGTTVTVSS
VL: B17 VL with G51D, A52V, S93G, L97I
notes: scFv
B22: Polypeptide No. 281 (scFv, V domains shown)
VH: QVQLVQSGAEVKKPGASVKVSCKASGYTFNSYGISWVRQAPGQGLEWMGIINPTGGSTTYAQKFQGRVTMTRDTSTSTVYMELSSLRSEDTAVYYCAKDPFVMDVWGQGTTVTVSS
VL: B17 VL with G51D, T54A, T57A, S93Y, S95T, L97Y, V105L
notes: scFv

The binders below were run against T1, huCLL1-K244-Avi-Tev-His (assay: BLI).

Row | binding result | Binder
1 | binds | B1
2 | binds | B2
3 | binds | B3
4 | binds | B4
5 | binds | B5
6 | binds | B6
7 | binds | B7
8 | binds | B8
9 | binds | B9
10 | binds | B10
11 | binds | B11
12 | binds | B12

Each binder was assayed against T2, huCLL1-Q244-Avi-Tev-His (assay: BLI).

Row | binding result | Binder
13 | binds | B1
14 | binds | B2
15 | binds | B3
16 | binds | B4
17 | binds | B5
18 | binds | B6
19 | binds | B7
20 | binds | B8
21 | binds | B9
22 | binds | B10
23 | binds | B11
24 | binds | B12

The binders below were run against T3, huFLT3-M227 stably expressed on Ramos cells (human, UniProt P36888 27-993) (assay: FACS on cells).
T3 construct: whole, on cells; also called FLT3 Mutant
T3 sequence (P36888 27-993 T227M): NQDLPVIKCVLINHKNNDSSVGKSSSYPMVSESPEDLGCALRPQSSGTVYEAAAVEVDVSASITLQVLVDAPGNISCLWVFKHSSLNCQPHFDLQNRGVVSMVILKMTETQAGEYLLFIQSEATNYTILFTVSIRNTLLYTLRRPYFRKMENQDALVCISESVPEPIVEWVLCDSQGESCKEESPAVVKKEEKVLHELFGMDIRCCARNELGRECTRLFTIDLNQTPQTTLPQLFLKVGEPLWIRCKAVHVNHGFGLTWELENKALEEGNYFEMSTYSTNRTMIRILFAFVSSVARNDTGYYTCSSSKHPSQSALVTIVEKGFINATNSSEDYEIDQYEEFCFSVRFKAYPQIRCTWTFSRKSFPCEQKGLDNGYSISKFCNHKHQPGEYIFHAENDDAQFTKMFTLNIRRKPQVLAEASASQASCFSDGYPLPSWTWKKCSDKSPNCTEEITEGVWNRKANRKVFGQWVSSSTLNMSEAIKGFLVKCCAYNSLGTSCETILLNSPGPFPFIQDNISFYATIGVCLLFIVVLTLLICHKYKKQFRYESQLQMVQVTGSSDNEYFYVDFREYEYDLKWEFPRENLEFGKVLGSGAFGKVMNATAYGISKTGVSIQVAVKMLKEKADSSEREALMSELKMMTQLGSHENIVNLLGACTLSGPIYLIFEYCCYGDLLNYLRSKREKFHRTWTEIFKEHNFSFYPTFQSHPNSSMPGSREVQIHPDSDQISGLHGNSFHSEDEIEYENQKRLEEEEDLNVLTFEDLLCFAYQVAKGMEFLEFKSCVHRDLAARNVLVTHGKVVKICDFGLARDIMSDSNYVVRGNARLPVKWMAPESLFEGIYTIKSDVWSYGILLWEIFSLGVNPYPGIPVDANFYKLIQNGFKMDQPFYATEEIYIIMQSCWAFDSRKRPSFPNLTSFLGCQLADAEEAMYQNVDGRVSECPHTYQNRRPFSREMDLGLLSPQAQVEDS
Description: For FLT3, Ramos cells were engineered to stably express either the huFLT3-T227 or huFLT3-M227 variant at >200,000 receptors per cell. Parental, huFLT3-T227, and huFLT3-M227 Ramos cell lines were stained with differing levels of CellTrace Violet Cell Proliferation Kit (ThermoFisher, cat. #C34557) to barcode each cell line. Barcoded Ramos cell lines were fixed with paraformaldehyde and incubated with myc-labeled scFv periplasmic extracts and a secondary anti-myc PE-conjugated monoclonal antibody. Appropriate positive and negative controls were used. Stained cells were analyzed by flow cytometry (CytoFLEX, Beckman Coulter, Inc.) and binding was assessed by change in PE mean fluorescence intensity (MFI) of the barcoded cell populations.

Row | FACS geometric mean fold change over Jurkat parental [fold] | Binder
25 | 2 to 10 | B13
26 | 2 to 10 | B14
27 | 2 to 10 | B15
28 | 2 to 10 | B16
29 | 2 to 10 | B17
30 | 2 to 10 | B18
31 | 2 to 10 | B19
32 | 2 to 10 | B20
33 | 2 to 10 | B21
34 | 2 to 10 | B22
